Values quoted from earlier work in PMC5896957.
pKd: −log10 of the molar value.

Molecular target: exon junction complex (Homo sapiens) (UniProt P38919)
UniProt P38919, sequence (P38919 2-411, chain 1 of 3): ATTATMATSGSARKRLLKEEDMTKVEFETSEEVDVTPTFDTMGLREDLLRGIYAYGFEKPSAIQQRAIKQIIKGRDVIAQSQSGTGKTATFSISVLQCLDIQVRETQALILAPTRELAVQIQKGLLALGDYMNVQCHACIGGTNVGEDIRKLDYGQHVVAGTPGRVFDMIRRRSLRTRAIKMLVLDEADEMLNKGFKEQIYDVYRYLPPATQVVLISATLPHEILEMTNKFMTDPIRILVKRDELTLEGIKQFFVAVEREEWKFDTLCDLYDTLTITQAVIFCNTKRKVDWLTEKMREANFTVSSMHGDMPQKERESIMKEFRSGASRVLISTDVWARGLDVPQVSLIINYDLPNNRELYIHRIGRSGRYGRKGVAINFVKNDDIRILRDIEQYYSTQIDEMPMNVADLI
UniProt P38919, sequence (B1ARP8 whole entry, chain 2 of 3, further chain): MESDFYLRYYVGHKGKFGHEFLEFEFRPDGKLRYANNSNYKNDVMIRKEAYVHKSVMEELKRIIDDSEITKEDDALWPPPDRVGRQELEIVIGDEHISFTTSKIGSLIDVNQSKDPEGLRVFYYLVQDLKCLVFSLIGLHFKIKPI
UniProt P38919, sequence (O15234 whole entry, chain 3 of 3, further chain): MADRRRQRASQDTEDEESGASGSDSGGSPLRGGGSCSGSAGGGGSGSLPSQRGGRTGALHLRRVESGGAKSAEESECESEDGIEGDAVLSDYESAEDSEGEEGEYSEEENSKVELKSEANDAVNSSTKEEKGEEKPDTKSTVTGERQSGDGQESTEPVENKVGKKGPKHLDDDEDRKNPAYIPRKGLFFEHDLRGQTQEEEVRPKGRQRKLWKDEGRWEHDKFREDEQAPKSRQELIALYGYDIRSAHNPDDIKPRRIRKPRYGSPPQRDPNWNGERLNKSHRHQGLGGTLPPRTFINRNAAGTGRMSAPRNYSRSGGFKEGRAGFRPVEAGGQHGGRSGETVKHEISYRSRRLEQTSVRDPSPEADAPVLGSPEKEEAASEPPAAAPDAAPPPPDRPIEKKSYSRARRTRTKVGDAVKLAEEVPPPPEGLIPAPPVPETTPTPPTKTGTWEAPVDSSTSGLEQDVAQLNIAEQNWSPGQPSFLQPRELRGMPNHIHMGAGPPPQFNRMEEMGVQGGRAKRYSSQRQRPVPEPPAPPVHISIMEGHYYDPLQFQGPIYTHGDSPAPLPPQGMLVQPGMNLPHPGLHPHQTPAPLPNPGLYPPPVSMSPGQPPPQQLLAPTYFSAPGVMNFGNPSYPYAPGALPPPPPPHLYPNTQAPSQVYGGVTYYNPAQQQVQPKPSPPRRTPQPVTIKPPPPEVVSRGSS

pKd: 5.00
Substance: UPF3B peptide (from UniProt Q9BZI7)
